Data from the supplement of paper PMC10567573.

B1: MLH1 (parent)
chain: YAHQMVRTDSREQKLDAFLQPLSK
B2: ESR2 (parent)
chain: KSCQACRLRKCYEVGMVKCGSRRE

Variants of: B1
Test: protein stability index of a GFP-peptide fusion (GPS, HEK-293T) (PSI 1-6); higher = more stable
Details: c terminus: a fixed tail appended
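Note: lentivirally expressed fusions sorted by FACS into six bins by GFP to DsRed ratio, PSI derived from sequencing read proportions per bin multiplied by bin number.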

Point of comparison: YAHQMVRTDSREQKLDAELQPLSK, protein stability index 3.12. Against it:
- YAHQMVRTDSREQKLDQFLQPLSK — lower, 2.06
- YAHQMVRTDSREQKLDPFLQPLSK — lower, 2.66
- YAHQMVRTDSREQKLDCFLQPLSK — lower, 2.15
- YAHQMVRTDSREQKLDMFLQPLSK — lower, 2.45
- YAHQMVRTISREQKLDAFLQPLSK — lower, 2.15
- YAHQMVVTDSREQKLDAFLQPLSK — lower, 2.12
- YAHQMVCTDSREQKLDAFLQPLSK — lower, 1.59
- YAHQMVNTDSREQKLDAFLQPLSK — lower, 2.98
- YAHQMVRTDSREQKLDARLQPLSK — higher, 3.17
- YAHQMVRTDSREQKLDAQLQPLSK — higher, 3.55
- YAHQMVRTDSTEQKLDAFLQPLSK — higher, 3.34
- YAHQMVRTDSGEQKLDAFLQPLSK — lower, 2.78
- YAHQMVRTDSRHQKLDAFLQPLSK — lower, 2.34
- YAHQMVRTDSRFQKLDAFLQPLSK — lower, 1.74
- YAHQMVRTDSRTQKLDAFLQPLSK — lower, 2.29
- YAHQMVRTDSRPQKLDAFLQPLSK — lower, 2.32
- YAHQMKRTDSREQKLDAFLQPLSK — lower, 2.53
- YAGQMVRTDSREQKLDAFLQPLSK — lower, 2.15
- YADQMVRTDSREQKLDAFLQPLSK — lower, 3.05
- YAKQMVRTDSREQKLDAFLQPLSK — lower, 2.75
- YANQMVRTDSREQKLDAFLQPLSK — higher, 3.13
- YAHQMVRTDSREQKLQAFLQPLSK — lower, 2.46
- YAHQMVRTDSREQKLAAFLQPLSK — lower, 2.69
- YAHQMVRTDSREQKLDAFLHPLSK — lower, 2.78
- YAHQMVRTDSREQKLDAFLWPLSK — lower, 2.99
- YAHQMVRTDMREQKLDAFLQPLSK — lower, 2.53
- YAHQMVRTDEREQKLDAFLQPLSK — lower, 2.79
- YAHQMVRTDNREQKLDAFLQPLSK — lower, 2.43
- YAHQMVRTDIREQKLDAFLQPLSK — lower, 3
- YAHQMVRTDRREQKLDAFLQPLSK — lower, 2.51
- YAHQMVRTDSREQKLDAFDQPLSK — lower, 3.02
- YAHQMVRTDSREQKLDAFWQPLSK — lower, 2.42
- YAHQMVRTDSREQKLDAFHQPLSK — the same, 3.12
- YAHQMVRTDSREQKLDAFLQPLPK — lower, 2.18
- YAHQMVRTDSREQKLDAFLQPLAK — lower, 1.99
- YAHQMVRWDSREQKLDAFLQPLSK — lower, 1.83
- YAHQMVRFDSREQKLDAFLQPLSK — lower, 2.12
- RAHQMVRTDSREQKLDAFLQPLSK — the same, 3.12
- MAHQMVRTDSREQKLDAFLQPLSK — lower, 3.11
- YNHQMVRTDSREQKLDAFLQPLSK — higher, 3.54
- YTHQMVRTDSREQKLDAFLQPLSK — lower, 2.55
- YDHQMVRTDSREQKLDAFLQPLSK — higher, 4.03
- YAHQMVRTDSREQWLDAFLQPLSK — lower, 1.86
- YAHQMVRTDSREQELDAFLQPLSK — lower, 2.78
- YAHQMVRTDSREQVLDAFLQPLSK — lower, 2.57
- YAHQMVRTDSREQYLDAFLQPLSK — lower, 1.83
- YAHQMVRTDSREQLLDAFLQPLSK — lower, 1.54
- YAHQSVRTDSREQKLDAFLQPLSK — lower, 3.02
- YAHQPVRTDSREQKLDAFLQPLSK — lower, 2.57
- YAHKMVRTDSREQKLDAFLQPLSK — lower, 2
- YAHIMVRTDSREQKLDAFLQPLSK — lower, 2.16
- YAHGMVRTDSREQKLDAFLQPLSK — lower, 2
- YAHVMVRTDSREQKLDAFLQPLSK — lower, 2.37
- YAHLMVRTDSREQKLDAFLQPLSK — lower, 2.37
- YAHQMVRTDSREQKLDAFLQPGSK — lower, 3.03
- YAHQMVRTDSREQKLDAFLQPFSK — lower, 2.07
- YAHQMVRTDSREQKLDAFLQPTSK — higher, 3.2
- YAHQMVRTDSREQKLDAFLQPASK — lower, 2.59
- YAHQMVRTDSREQKLDAFLQPMSK — lower, 2.43

Variants of: B2
Test: as above
Details: c terminus: a fixed tail appended

Point of comparison: KSCQAERLRKCYEVGMVKCGSRRE, protein stability index 2.38. Against it:
- KSCQACGLRKCYEVGMVKCGSRRE — lower, 2
- KSCQACMLRKCYEVGMVKCGSRRE — lower, 1.48
- KSCQACFLRKCYEVGMVKCGSRRE — lower, 2.29
- KSCQACDLRKCYEVGMVKCGSRRE — lower, 2.06
- KSCQACALRKCYEVGMVKCGSRRE — lower, 1.32
- KSCQACRLRKCYEVGMVKCMSRRE — lower, 1.73
- KSCQACRLRKCYEVGMVKCISRRE — lower, 2.16
- KSCQACRLRKCYEVGMVKCKSRRE — higher, 2.41
- KSCQACRLRKCYEVGMVKCCSRRE — lower, 1.95
- KSCQACRLRKCYEVGMVKCQSRRE — lower, 1.73
- KSCQACRLRKCYEVGMVKCTSRRE — lower, 2.19
- KSCQACRLRKCYEVGMVKCHSRRE — higher, 2.75
- KKCQACRLRKCYEVGMVKCGSRRE — lower, 2.02
- KHCQACRLRKCYEVGMVKCGSRRE — lower, 2.23
- KNCQACRLRKCYEVGMVKCGSRRE — lower, 1.98
- KFCQACRLRKCYEVGMVKCGSRRE — lower, 1.45
- KMCQACRLRKCYEVGMVKCGSRRE — lower, 1.78
- KSCQACRLRKCYEVGMVKCGSRTE — lower, 1.85
- KSCQACRLRKCYEVGMVKCGSRLE — lower, 1.58
- KSCQACRLRKCYEVGMVKCGSRFE — higher, 2.51
- KSCQACRLRKCYEVGMVKCGSRNE — lower, 2.17
- KSCQACRLRKCYEVGMVKCGSRAE — lower, 1.61
- KSCQACRLRKCYEVGMVKCGSRWE — lower, 1.67
- KSCQACRLRKCYEVGMAKCGSRRE — higher, 2.41
- KSYQACRLRKCYEVGMVKCGSRRE — lower, 2.19
- KSMQACRLRKCYEVGMVKCGSRRE — higher, 2.48
- KSQQACRLRKCYEVGMVKCGSRRE — higher, 2.94
- KSCQAQRLRKCYEVGMVKCGSRRE — higher, 2.94
- KSCQAHRLRKCYEVGMVKCGSRRE — higher, 2.81
- KSCQADRLRKCYEVGMVKCGSRRE — higher, 2.73
- KSCQAYRLRKCYEVGMVKCGSRRE — lower, 2.28
- KSCQACRLRKCYLVGMVKCGSRRE — lower, 1.64
- KSCQACRLRKCYKVGMVKCGSRRE — lower, 1.99
- KSCQACRLRKCYQVGMVKCGSRRE — lower, 1.7
- KSCQACRLRKCYDVGMVKCGSRRE — lower, 1.88
- KSCQACRLRKCYFVGMVKCGSRRE — lower, 2.23
- KSCQACRLRKCYIVGMVKCGSRRE — lower, 2.03
- KSCQACRLRKCYEVSMVKCGSRRE — lower, 1.34
- KSCQACRLRKCYEVAMVKCGSRRE — lower, 1.69
- KSCQACRLRKCYEVQMVKCGSRRE — lower, 1.49
- KSCQACRLRKCYEVRMVKCGSRRE — lower, 1.91
- KSCQACRLRKEYEVGMVKCGSRRE — lower, 1.57
- KSCQACRLRKQYEVGMVKCGSRRE — lower, 1.79
- KSCQACRLRKWYEVGMVKCGSRRE — lower, 2
- KSCQACRLRKTYEVGMVKCGSRRE — lower, 2.29
- KSCQACRLRKNYEVGMVKCGSRRE — lower, 1.78
- KSCQACRLRKIYEVGMVKCGSRRE — lower, 2.19
- KSCQACRLRKPYEVGMVKCGSRRE — lower, 1.38
- KSCQACRLIKCYEVGMVKCGSRRE — lower, 1.82
- KSCQACRLVKCYEVGMVKCGSRRE — lower, 2.13
- KSCQACRLQKCYEVGMVKCGSRRE — lower, 1.99
- KSCQACRLKKCYEVGMVKCGSRRE — lower, 2.04
- KSCQACRLAKCYEVGMVKCGSRRE — lower, 1.1
- KSCQACRLPKCYEVGMVKCGSRRE — lower, 2.35
- KSCYACRLRKCYEVGMVKCGSRRE — lower, 1.9
- KSCLACRLRKCYEVGMVKCGSRRE — lower, 2.15
- KSCAACRLRKCYEVGMVKCGSRRE — lower, 1.55
- KSCEACRLRKCYEVGMVKCGSRRE — lower, 2.1
- KSCNACRLRKCYEVGMVKCGSRRE — lower, 1.86
- KSCTACRLRKCYEVGMVKCGSRRE — lower, 2.17
- KSCIACRLRKCYEVGMVKCGSRRE — lower, 1.88
- KSCWACRLRKCYEVGMVKCGSRRE — lower, 1.39
- KSCQACRLRCCYEVGMVKCGSRRE — lower, 1.5
- KSCQACRLRPCYEVGMVKCGSRRE — lower, 1.94
- KSCQACRLRSCYEVGMVKCGSRRE — higher, 2.69
- KSCQLCRLRKCYEVGMVKCGSRRE — lower, 2.29
- KSCQRCRLRKCYEVGMVKCGSRRE — higher, 3.08
- KSCQCCRLRKCYEVGMVKCGSRRE — lower, 2.08
- KSCQMCRLRKCYEVGMVKCGSRRE — lower, 1.36
- KSCQACRLRKCYEVGMVRCGSRRE — lower, 2.31
- KSCQACRLRKCYEVGMVFCGSRRE — lower, 1.51
- KSCQACRLRKCYEVGMVMCGSRRE — lower, 1.67
- KSCQACRLRKCYEVGMVCCGSRRE — lower, 2.16
- KSCQACRLRKCYEVGMVNCGSRRE — higher, 2.39
- KSCQACRLRKCYEVGHVKCGSRRE — higher, 2.82
- KSCQACRLRKCYEVGLVKCGSRRE — lower, 2.22
- KSCQACRLRKCYEVGGVKCGSRRE — lower, 2
- KSCQACRLRKCYEVGKVKCGSRRE — higher, 2.67
- KSCQACRLRKCYEVGEVKCGSRRE — lower, 1.84
- KSCQACRLRKCYEVGFVKCGSRRE — lower, 2.1
- KSCQACRLRKCYEVGMVKCGSRRC — lower, 2.28
- KSCQACRLRKCYEVGMVKCGSRRY — lower, 1.42
- KSCQACRLRKCYEVGMVKCGSRRI — lower, 1.73
- KSCQACRLRKCYEVGMVKCGSRRV — lower, 2.19
- KSCQACRLRKCYEVGMVKCGSRRP — higher, 2.74
- KSCQACRLRKCYEVGMVKCGSRRL — lower, 2.07
- KSCQACRLRKCYEVGMVKCGSRRW — lower, 2.33
- KSCQACRLRKCYEVGMVKCGSRRN — lower, 2.02
- KSCQACRFRKCYEVGMVKCGSRRE — lower, 2.21
- KSCQACRQRKCYEVGMVKCGSRRE — lower, 1.84
- KSCQACRWRKCYEVGMVKCGSRRE — lower, 1.87
- KSCQACRPRKCYEVGMVKCGSRRE — lower, 2.27
- KSCQACRCRKCYEVGMVKCGSRRE — higher, 2.61
- KSCQACRTRKCYEVGMVKCGSRRE — lower, 2.11
- KSCQACRLRKCYEVGMVKCGSCRE — higher, 3.45
- KSCQACRLRKCYEVGMVKCGSQRE — lower, 2.04
- KSCQACRLRKCYEVGMVKCGSKRE — lower, 2.35
- KSCQACRLRKCYEVGMVKCGSTRE — lower, 1.92
- KSCQACRLRKCYEVGMVKCGSARE — lower, 1.88
- KSCQACRLRKCYEVGMVKEGSRRE — higher, 2.43
- KSCQACRLRKCYEVGMVKGGSRRE — lower, 2.11
- KSCQACRLRKCYEVGMVKRGSRRE — higher, 2.52
- KSCQACRLRKCYEVGMVKAGSRRE — lower, 2.18
- KSCQACRLRKCYEVGMVKFGSRRE — lower, 1.86
- KSCQACRLRKCYEVGMVKHGSRRE — lower, 1.94
- FSCQACRLRKCYEVGMVKCGSRRE — lower, 2.31
- HSCQACRLRKCYEVGMVKCGSRRE — higher, 2.5
- ESCQACRLRKCYEVGMVKCGSRRE — lower, 1.72
- LSCQACRLRKCYEVGMVKCGSRRE — lower, 1.95
- ASCQACRLRKCYEVGMVKCGSRRE — higher, 2.89
- RSCQACRLRKCYEVGMVKCGSRRE — lower, 2.22
- GSCQACRLRKCYEVGMVKCGSRRE — higher, 2.71
- KSCQACRLRKCYEVGMVKCGHRRE — higher, 2.65
- KSCQACRLRKCYEVGMVKCGYRRE — lower, 1.76
- KSCQACRLRKCYEVGMVKCGLRRE — higher, 2.44
- KSCQACRLRKCYEVGMVKCGNRRE — higher, 2.57
- KSCQACRLRKCFEVGMVKCGSRRE — lower, 1.77
- KSCQACRLRKCCEVGMVKCGSRRE — higher, 2.78
- KSCQACRLRKCLEVGMVKCGSRRE — lower, 1.89
- KSCQACRLRKCGEVGMVKCGSRRE — lower, 2.36
- KSCQACRLRKCDEVGMVKCGSRRE — lower, 1.83
- KSCQACRLRKCPEVGMVKCGSRRE — lower, 2.13
- KSCQACRLRKCVEVGMVKCGSRRE — lower, 2.19
- KSCQACRLRKCYESGMVKCGSRRE — higher, 2.52
- KSCQACRLRKCYELGMVKCGSRRE — lower, 1.49
- KSCQACRLRKCYEAGMVKCGSRRE — lower, 2.1
- KSCQACRLRKCYENGMVKCGSRRE — lower, 2.34
